Measured values as given in US20130004493A1.

Columns and labels:
[1] = target: Focal adhesion kinase (FAK), human (human) (UniProt Q05397); assay: immunoprecipitation from ARPE-19 and ARPE-19/EMP2 lysates, Western blot densitometry
[2] = target: Focal adhesion kinase (FAK), human (human) (UniProt Q05397); assay: cell-based or functional assay
[3] = target: Focal adhesion kinase (FAK), human (human) (UniProt Q05397); assay: co-immunoprecipitation, Western blot for FAK, ARPE-19 cells (figure legend)
[4] = target: Focal adhesion kinase (FAK), human (human) (UniProt Q05397); assay: co-immunoprecipitation with anti-EMP2 antibody, Western blot densitometry, ARPE-19 cells
[5] = target: Focal adhesion kinase (FAK), human (human) (UniProt Q05397); assay: co-immunoprecipitation with anti-EMP2 antibody, Western blot densitometry, ARPE-19/EMP2 cells
[6] = target: Focal adhesion kinase (FAK), human (human) (UniProt Q05397); assay: co-immunoprecipitation, ratio of co-immunoprecipitate to cognate immunoprecipitate, ARPE-19 cells
[7] = target: Focal adhesion kinase (FAK), human (human) (UniProt Q05397); assay: co-immunoprecipitation, ratio of co-immunoprecipitate to cognate immunoprecipitate, ARPE-19/EMP2 cells

Sequence of Focal adhesion kinase (FAK), human (human) (Q05397 2-1052): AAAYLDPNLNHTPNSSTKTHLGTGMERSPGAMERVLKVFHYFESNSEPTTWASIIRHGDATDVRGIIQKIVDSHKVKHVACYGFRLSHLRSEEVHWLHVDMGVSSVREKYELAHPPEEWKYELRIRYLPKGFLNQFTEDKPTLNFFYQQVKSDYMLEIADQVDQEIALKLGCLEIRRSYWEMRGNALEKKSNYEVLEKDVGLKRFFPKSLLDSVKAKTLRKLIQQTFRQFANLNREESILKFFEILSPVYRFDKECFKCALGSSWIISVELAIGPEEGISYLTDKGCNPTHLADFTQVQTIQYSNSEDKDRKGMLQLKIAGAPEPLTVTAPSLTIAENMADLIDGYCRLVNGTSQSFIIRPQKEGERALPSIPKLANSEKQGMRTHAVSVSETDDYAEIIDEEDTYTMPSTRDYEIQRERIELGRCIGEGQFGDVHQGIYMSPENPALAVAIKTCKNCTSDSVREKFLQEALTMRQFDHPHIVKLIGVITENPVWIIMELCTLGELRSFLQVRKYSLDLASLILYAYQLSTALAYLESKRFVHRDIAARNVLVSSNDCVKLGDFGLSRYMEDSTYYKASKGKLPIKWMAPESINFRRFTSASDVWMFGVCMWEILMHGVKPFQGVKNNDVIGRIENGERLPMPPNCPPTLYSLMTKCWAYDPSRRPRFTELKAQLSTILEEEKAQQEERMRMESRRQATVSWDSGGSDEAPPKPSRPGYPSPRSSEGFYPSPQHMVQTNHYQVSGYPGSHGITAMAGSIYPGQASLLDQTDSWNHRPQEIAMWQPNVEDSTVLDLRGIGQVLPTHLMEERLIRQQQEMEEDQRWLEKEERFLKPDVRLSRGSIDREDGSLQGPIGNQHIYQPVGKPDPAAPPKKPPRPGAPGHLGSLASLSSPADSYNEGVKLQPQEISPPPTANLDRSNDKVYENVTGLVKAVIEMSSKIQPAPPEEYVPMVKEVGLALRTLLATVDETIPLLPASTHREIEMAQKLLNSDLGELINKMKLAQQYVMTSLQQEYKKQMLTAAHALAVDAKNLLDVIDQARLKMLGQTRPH

cognate immunoprecipitation efficiency [1] [%] | percent of FAK at the cell surface contacting the glass slide colocalized with EMP2 (confocal microscopy, ARPE-19/EMP2 cells) [2] [%] | percent of FAK at the cell surface contacting the glass slide colocalized with EMP2 (confocal microscopy, ARPE-19 cells) [2] [%] | percent of total FAK co-immunoprecipitated by EMP2 [3] [%] | level of FAK in the EMP2 immunoprecipitates [4] [%] | level of FAK in the EMP2 immunoprecipitates [5] [%] | percent of total FAK associated with EMP2 [6] [%] | percent of total FAK associated with EMP2 [7] [%] | Substance
50 to 60 |  |  |  |  |  |  |  | Anti-FAK polyclonal antibody (Santa Cruz Biotechnology, clone C-20)
 | 96 | 68 | 25 | 12 | 15 | 24 | 30 | Epithelial membrane protein 2 (EMP2), human (from UniProt P54851 1-167)
